From publication PMC11608337 (Nature Communications, 2024) come the findings set out here.

T1: RING domain of IRF2BP2 (residues 498-578) (UniProt Q7Z5L9 498-578)
T1 sequence (looked up): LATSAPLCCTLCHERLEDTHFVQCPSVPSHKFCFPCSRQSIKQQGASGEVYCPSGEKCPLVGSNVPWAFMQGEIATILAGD

Broadly, the Kd is a measure of binding affinity in units of concentration. Lower therefore signals a tighter complex.

This experiment concerns the target T1, RING domain of IRF2BP2 (residues …). The experiment can be described thus: ITC.
With RSSVITSA [RxSVI motif-containing peptide of ZBTB16 (residues 285-292, RSSVITSA)], binding was characterised by a dissociation constant (Kd) of 12.6 µM.

Molecule RGSVITSA [mouse ZBTB16 peptide (residues 285-292, RGSVITSA)] registered a Kd of 16.8 µM. Turning to ERQQNRPSVITCASAG (peptide, UniProt Q14135 156-171, looked up) [VGLL4-L (residues 156-171)], the “fold increase of binding affinity (KD) over the shorter peptide” value came out at 2.1 fold. GPGTPTRSSVITSARELHYG (peptide, UniProt Q05516 279-298, looked up) [ZBTB16-L (residues 279-298)] showed a Kd of 7.21 µM. On to RSVLVHAG [NFAT1 peptide (residues 782-789, RSVLVHAG)], for which the affinity, expressed as Kd, was 514 µM. For the molecule RPDRETRASVIKKTSDITQ (peptide, UniProt P14316 325-343, looked up) [IRF2-L (residues 325-343)], the “fold increase of binding affinity (KD) over the shorter peptide” value came out at 3.9 fold. RASVIKKT [IRF2 peptide (residues 331-338, RASVIKKT)]: the affinity, expressed as Kd, was 6.45 µM.
